This experiment deals with Yeast Hsp90 wildtype construct without the coiled-coil motif and without cysteine mutation (yeast) (UniProt P02829). Description: neutron spin echo spectroscopy; Hsp90 wildtype at 50 mg mL^-1 (614 µM) in D2O buffer with 150 mM KCl, 10 mM MgCl2, 295 K; effective diffusion compared with rigid-body models of dimer and hexamer.

In general, stoichiometry N refers to the number of molecules, sites or subunits per partner or assembly.

Consider “Yeast Hsp90 wildtype construct without the coiled-coil motif and without cysteine mutation, P02829 1-709 (natural protein; other documents disagree on this pair)”, for which the stoichiometry N amounted to 6.
